{"source": "patent WO2018225033A1", "key": {"[1]": {"target": "rabbit Fc-tagged recombinant extracellular human ICOS (human) (UniProt Q9Y6W8)", "sequence (Q9Y6W8 21-140)": "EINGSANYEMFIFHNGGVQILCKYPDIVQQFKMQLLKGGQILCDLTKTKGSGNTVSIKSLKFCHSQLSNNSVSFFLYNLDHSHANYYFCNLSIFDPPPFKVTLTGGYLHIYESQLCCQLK", "assay": "SPR, Biacore T200, 1:1 kinetics model, rabbit Fc-tagged extracellular human ICOS"}, "FcyR": {"target": "FcyR", "assay": "cell-based or functional assay"}, "[2]": {"target": "rabbit Fc-tagged recombinant extracellular human ICOS (human) (UniProt Q9Y6W8)", "assay": "SPR, Biacore; reference is human ICOS-L binding to dimeric human ICOS (FIG. 15B)"}}}
{"binder": "H2L5 IgG4PE (antibody, V domains shown) VH: QVQLVQSGAEVKKPGSSVKVSCKASGYTFTDYAMHWVRQAPGQGLEWMGLISIYSDHTNYNQKFQGRVTITADKSTSTAYMELSSLRSEDTAVYYCGRNNYGNYGWYFDVWGQGTTVTVSS VL: EIVLTQSPATLSLSPGERATLSCSASSSVSYMHWYQQKPGQAPRLLIYDTSKLASGIPARFSGSGSGTDYTLTISSLEPEDFAVYYCFQGSGYPYTFGQGTKLEIK", "values": [{"measurement": "Kd", "setting": "[1]", "value": 1.34, "unit": "nM"}, {"measurement": "IFN-γ induction in activated human PBMC assay", "setting": "FcyR", "value": "> 2", "unit": "fold"}, {"measurement": "IFN-γ induction in modified mixed lymphocyte reaction", "setting": "FcyR", "value": "> 2", "unit": "fold"}, {"measurement": "fold higher affinity than the ICOS-L/ICOS interaction", "setting": "[2]", "value": 17, "unit": "fold"}]}
